T1: CYP102A2 (Bacillus subtilis, UniProt O08394)
T1 construct: gene cypD; full-length heme-diflavin reductase fusion, about 119 kDa per active site; PCR from genomic DNA, pCR T7/CT-TOPO, E. coli BL21(DE3); untagged enzyme and C-terminal 6His version both made, said kinetically alike
T1 sequence (O08394 1-1061): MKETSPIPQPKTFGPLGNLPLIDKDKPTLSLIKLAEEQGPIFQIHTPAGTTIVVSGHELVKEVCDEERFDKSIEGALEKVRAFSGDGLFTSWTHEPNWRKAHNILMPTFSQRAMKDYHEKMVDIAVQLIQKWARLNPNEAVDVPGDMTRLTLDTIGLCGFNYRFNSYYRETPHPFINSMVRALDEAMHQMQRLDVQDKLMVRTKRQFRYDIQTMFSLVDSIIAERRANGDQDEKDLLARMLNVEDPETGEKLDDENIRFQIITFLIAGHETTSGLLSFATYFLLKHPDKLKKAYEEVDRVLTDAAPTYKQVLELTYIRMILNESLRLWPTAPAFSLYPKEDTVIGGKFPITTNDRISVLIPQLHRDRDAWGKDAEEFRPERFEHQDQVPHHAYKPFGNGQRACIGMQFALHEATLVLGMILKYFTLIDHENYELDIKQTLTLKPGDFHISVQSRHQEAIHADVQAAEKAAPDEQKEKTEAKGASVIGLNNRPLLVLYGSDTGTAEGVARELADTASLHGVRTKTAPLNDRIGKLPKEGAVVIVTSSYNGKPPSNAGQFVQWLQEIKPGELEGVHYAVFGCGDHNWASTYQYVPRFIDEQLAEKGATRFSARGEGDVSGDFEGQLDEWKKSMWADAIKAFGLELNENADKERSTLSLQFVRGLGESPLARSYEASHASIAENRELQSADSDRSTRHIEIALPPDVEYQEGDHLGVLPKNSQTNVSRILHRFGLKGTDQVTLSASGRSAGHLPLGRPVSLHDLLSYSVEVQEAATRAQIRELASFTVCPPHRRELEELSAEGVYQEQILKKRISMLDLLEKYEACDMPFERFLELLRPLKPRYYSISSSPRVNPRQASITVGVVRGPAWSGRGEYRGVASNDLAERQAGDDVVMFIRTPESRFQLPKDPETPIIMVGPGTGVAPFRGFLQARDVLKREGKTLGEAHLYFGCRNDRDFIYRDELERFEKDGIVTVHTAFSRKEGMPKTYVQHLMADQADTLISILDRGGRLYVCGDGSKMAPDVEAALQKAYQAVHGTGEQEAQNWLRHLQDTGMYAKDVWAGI


Columns and labels:
CYP102A2 = molecular target: T1, CYP102A2; assay: product inhibition, NADPH oxidation at […] nm; type: biochemical
purified protein [1] = substrate: CCCCCCCCCCCC(=O)O; assay: purified protein; type: biochemical, Bacillus subtilis; details: NADPH co-substrate, 0.1 M potassium phosphate pH 7.2, 37 °C, sigmoidal, nH 8.7
purified protein [2] = substrate: CCCCCCCCCCCCOS(=O)(=O)O; assay: purified protein; type: biochemical, Bacillus subtilis; details: 0.1 mM NADPH, 0.1 M potassium phosphate pH 7.2, 37 °C, SDS 0.34-1.73 mM, sigmoidal, nH 5.7
purified protein [3] = substrate: NC(=O)C1=CN([C@@H]2O[C@H](COP(=O)(O)OP(=O)(O)OC[C@H]3O[C@@H](n4cnc5c(N)ncnc54)[C@H](OP(=O)(O)O)[C@@H]3O)[C@@H](O)[C@H]2O)C=CC1; assay: purified protein; type: biochemical, Bacillus subtilis; details: 1.735 mM SDS co-substrate, 0.1 M potassium phosphate pH 7.2, 37 °C, NADPH 6.6-100 μM

Ki (CYP102A2) | Molecule | K0.5 (purified protein [1]) | Vmax (purified protein [1]) | K0.5 (purified protein [2]) | Vmax (purified protein [2]) | Km (purified protein [3]) | kcat (purified protein [3]) | kcat/Km (purified protein [3])
100 µM | NC(=O)c1ccc[n+]([C@@H]2O[C@H](COP(=O)(O)OP(=O)(O)OC[C@H]3O[C@@H](n4cnc5c(N)ncnc54)[C@H](OP(=O)(O)O)[C@@H]3O)[C@@H](O)[C@H]2O)c1 [NADP^+] |  |  |  |  |  |  | 
 | CYP102A2 (Bacillus subtilis subsp. subtilis str. 168) (protein, full-length heme-diflavin reductase fusion, about 119 kDa per active site; PCR from genomic DNA, pCR T7/CT-TOPO, E. coli BL21(DE3); untagged enzyme and C-terminal 6His version both made, said kinetically alike) MKETSPIPQPKTFGPLGNLPLIDKDKPTLSLIKLAEEQGPIFQIHTPAGTTIVVSGHELVKEVCDEERFDKSIEGALEKVRAFSGDGLFTSWTHEPNWRKAHNILMPTFSQRAMKDYHEKMVDIAVQLIQKWARLNPNEAVDVPGDMTRLTLDTIGLCGFNYRFNSYYRETPHPFINSMVRALDEAMHQMQRLDVQDKLMVRTKRQFRYDIQTMFSLVDSIIAERRANGDQDEKDLLARMLNVEDPETGEKLDDENIRFQIITFLIAGHETTSGLLSFATYFLLKHPDKLKKAYEEVDRVLTDAAPTYKQVLELTYIRMILNESLRLWPTAPAFSLYPKEDTVIGGKFPITTNDRISVLIPQLHRDRDAWGKDAEEFRPERFEHQDQVPHHAYKPFGNGQRACIGMQFALHEATLVLGMILKYFTLIDHENYELDIKQTLTLKPGDFHISVQSRHQEAIHADVQAAEKAAPDEQKEKTEAKGASVIGLNNRPLLVLYGSDTGTAEGVARELADTASLHGVRTKTAPLNDRIGKLPKEGAVVIVTSSYNGKPPSNAGQFVQWLQEIKPGELEGVHYAVFGCGDHNWASTYQYVPRFIDEQLAEKGATRFSARGEGDVSGDFEGQLDEWKKSMWADAIKAFGLELNENADKERSTLSLQFVRGLGESPLARSYEASHASIAENRELQSADSDRSTRHIEIALPPDVEYQEGDHLGVLPKNSQTNVSRILHRFGLKGTDQVTLSASGRSAGHLPLGRPVSLHDLLSYSVEVQEAATRAQIRELASFTVCPPHRRELEELSAEGVYQEQILKKRISMLDLLEKYEACDMPFERFLELLRPLKPRYYSISSSPRVNPRQASITVGVVRGPAWSGRGEYRGVASNDLAERQAGDDVVMFIRTPESRFQLPKDPETPIIMVGPGTGVAPFRGFLQARDVLKREGKTLGEAHLYFGCRNDRDFIYRDELERFEKDGIVTVHTAFSRKEGMPKTYVQHLMADQADTLISILDRGGRLYVCGDGSKMAPDVEAALQKAYQAVHGTGEQEAQNWLRHLQDTGMYAKDVWAGI | 0.47 ± 0.005 mM | 0.088 µmol/min | 1.22 ± 0.04 mM | 0.18 µmol/min | 8.30 ± 0.62 µM | 2.05 ± 0.05 s⁻¹ | 250000 M⁻¹ s⁻¹
